Experiments:
[1] = substrate: CC(C)=CCC[C@]1(C)C=Cc2c(O)c3c(c(CC=C(C)C)c2O1)O[C@]12C(=C[C@@H]4C[C@H]1C(C)(C)O[C@@]2(C/C=C(/C)C(=O)O)C4=O)C3=O; settings: Homo sapiens; 24.8 uM
[2] = substrate: CC(C)=CCC[C@]1(C)C=Cc2c(O)c3c(c(CC=C(C)C)c2O1)O[C@]12C(=C[C@@H]4C[C@H]1C(C)(C)O[C@@]2(C/C=C(/C)C(=O)O)C4=O)C3=O; settings: Homo sapiens; 12.4 uM
[3] = substrate: CC(C)=CCC[C@]1(C)C=Cc2c(O)c3c(c(CC=C(C)C)c2O1)O[C@]12C(=C[C@@H]4C[C@H]1C(C)(C)O[C@@]2(C/C=C(/C)C(=O)O)C4=O)C3=O; settings: Homo sapiens; 49.6 uM
Description: Competitive inhibition of recombinant human PTP1B (1 to 322 residues) expressed in Escherichia coli assessed as substrate Km at 49.6 uM using pNPP as substrate by Lineweaver-Burk plot analysis

[4] = substrate: CC(C)=CCC[C@]1(C)C=Cc2c(O)c3c(c(CC=C(C)C)c2O1)O[C@]12C(=C[C@@H]4C[C@H]1C(C)(C)O[C@@]2(C/C=C(/C)C(=O)O)C4=O)C3=O; settings: Homo sapiens; 49.6 uM; remark: listed apart in the source
[5] = substrate: CC(C)=CCC[C@]1(C)C=Cc2c(O)c3c(c(CC=C(C)C)c2O1)O[C@]12C(=C[C@@H]4C[C@H]1C(C)(C)O[C@@]2(C/C=C(/C)C(=O)O)C4=O)C3=O; settings: Homo sapiens; 24.8 uM; remark: listed apart in the source
Description: Competitive inhibition of recombinant human PTP1B (1 to 322 residues) expressed in Escherichia coli assessed as substrate Km at 24.8 uM using pNPP as substrate by Lineweaver-Burk plot analysis

[6] = substrate: CC(C)=CCC[C@]1(C)C=Cc2c(O)c3c(c(CC=C(C)C)c2O1)O[C@]12C(=C[C@@H]4C[C@H]1C(C)(C)O[C@@]2(C/C=C(/C)C(=O)O)C4=O)C3=O; settings: Homo sapiens; 12.4 uM; remark: listed apart in the source
Description: Competitive inhibition of recombinant human PTP1B (1 to 322 residues) expressed in Escherichia coli assessed as substrate Km at 12.4 uM using pNPP as substrate by Lineweaver-Burk plot analysis

B1: Tyrosine-protein phosphatase non-receptor type 1 (Homo sapiens), P18031 (protein)
chain: MEMEKEFEQIDKSGSWAAIYQDIRHEASDFPCRVAKLPKNKNRNRYRDVSPFDHSRIKLHQEDNDYINASLIKMEEAQRSYILTQGPLPNTCGHFWEMVWEQKSRGVVMLNRVMEKGSLKCAQYWPQKEEKEMIFEDTNLKLTLISEDIKSYYTVRQLELENLTTQETREILHFHYTTWPDFGVPESPASFLNFLFKVRESGSLSPEHGPVVVHCSAGIGRSGTFCLADTCLLLMDKRKDPSSVDIKKVLLEMRKFRMGLIQTADQLRFSYLAVIEGAKFIMGDSSVQDQWKELSHEDLEPPPEHIPPPPRPPKRILEPHNGKCREFFPNHQWVKEETQEDKDCPIKEEKGSPLNAAPYGIESMSQDTEVRSRVVGGSLRGAQAASPAKGEPSLPEKDEDHALSYWKPFLVNMCVATVLTAGAYLCYRFLFNSNT
Question: Which Vmax (optical density/minute) [1] does the source give for B1 here?
Answer: 12.9

Question: And the Vmax (optical density/minute) [2]?
Answer: 12.6

Question: And the Km [3]?
Answer: 12.7 mM

Question: What about the Vmax (optical density/minute) [4] of the same protein?
Answer: 13.7

Question: What about the Km [5] of the same protein?
Answer: 6.84 mM

Question: And the Km [6]?
Answer: 4.46 mM
